Test results taken from the RNAGym collection of RNA variant scans (doi:10.1021/acssynbio.7b00057).

B1: Pistol ribozyme (parent)
chain: GGGUCGUUGUUCCAUAAUCGCGUGGAUAUGGCACGCAAGUUUCUACCGGGCACCGUAAAUGUCCGACUGGAGCCGUUCGGGCGGCUAUAAACAGACCUCAGGCCCGAAGCGUGGCGGCACCUGCCGCCGGUGGUAAAAAAGAUCGGAAGAGCACACGUCU

Variants of: B1
Assay: aptazyme ON/OFF ratio, guanine; higher = stronger switching; co-transcriptional cleavage with and without guanine

Variant	aptazyme ON/OFF ratio
GGGUCGGGAUUCUAUAAUCGCGUGGAUAUGGCACGCAAGUUUCUACCGGGCACCGUAAAUGUCCGACUGGAGCCGUUCGGGCGGCUAUAAACAGACCUCAGGCCCGAAGCGUGGCGGCACCUGCCGCCGGUGGUAAAAAAGAUCGGAAGAGCACACGUCU	1.36
GGGUCGGGAUUCGAUAAUCGCGUGGAUAUGGCACGCAAGUUUCUACCGGGCACCGUAAAUGUCCGACUGGAGCCGUUCGGGCGGCUAUAAACAGACCUCAGGCCCGAAGCGUGGCGGCACCUGCCGCCGGUGGUAAAAAAGAUCGGAAGAGCACACGUCU	1.17
GGGUCGGGAUUCAAUAAUCGCGUGGAUAUGGCACGCAAGUUUCUACCGGGCACCGUAAAUGUCCGACUGGAGCCGUUCGGGCGGCUAUAAACAGACCUCAGGCCCGAAGCGUGGCGGCACCUGCCGCCGGUGGUAAAAAAGAUCGGAAGAGCACACGUCU	1.5
GGGUCGGGAAUCAAUAAUCGCGUGGAUAUGGCACGCAAGUUUCUACCGGGCACCGUAAAUGUCCGACUGGAGCCGUUCGGGCGGCUAUAAACAGACCUCAGGCCCGAAGCGUGGCGGCACCUGCCGCCGGUGGUAAAAAAGAUCGGAAGAGCACACGUCU	1.28
GGGUCGGGAAUCUAUAAUCGCGUGGAUAUGGCACGCAAGUUUCUACCGGGCACCGUAAAUGUCCGACUGGAGCCGUUCGGGCGGCUAUAAACAGACCUCAGGCCCGAAGCGUGGCGGCACCUGCCGCCGGUGGUAAAAAAGAUCGGAAGAGCACACGUCU	1.37
GGGUCGGGAAUCGAUAAUCGCGUGGAUAUGGCACGCAAGUUUCUACCGGGCACCGUAAAUGUCCGACUGGAGCCGUUCGGGCGGCUAUAAACAGACCUCAGGCCCGAAGCGUGGCGGCACCUGCCGCCGGUGGUAAAAAAGAUCGGAAGAGCACACGUCU	1.17
GGGUCGGGAUUUAAUAAUCGCGUGGAUAUGGCACGCAAGUUUCUACCGGGCACCGUAAAUGUCCGACUGGAGCCGUUCGGGCGGCUAUAAACAGACCUCAGGCCCGAAGCGUGGCGGCACCUGCCGCCGGUGGUAAAAAAGAUCGGAAGAGCACACGUCU	1.27
GGGUCGGGAUUUUAUAAUCGCGUGGAUAUGGCACGCAAGUUUCUACCGGGCACCGUAAAUGUCCGACUGGAGCCGUUCGGGCGGCUAUAAACAGACCUCAGGCCCGAAGCGUGGCGGCACCUGCCGCCGGUGGUAAAAAAGAUCGGAAGAGCACACGUCU	1.41
GGGUCGGGAUUUGAUAAUCGCGUGGAUAUGGCACGCAAGUUUCUACCGGGCACCGUAAAUGUCCGACUGGAGCCGUUCGGGCGGCUAUAAACAGACCUCAGGCCCGAAGCGUGGCGGCACCUGCCGCCGGUGGUAAAAAAGAUCGGAAGAGCACACGUCU	1.22
GGGUCGGGAAUAGAUAAUCGCGUGGAUAUGGCACGCAAGUUUCUACCGGGCACCGUAAAUGUCCGACUGGAGCCGUUCGGGCGGCUAUAAACAGACCUCAGGCCCGAAGCGUGGCGGCACCUGCCGCCGGUGGUAAAAAAGAUCGGAAGAGCACACGUCU	1.04
GGGUCGGGAAUAUAUAAUCGCGUGGAUAUGGCACGCAAGUUUCUACCGGGCACCGUAAAUGUCCGACUGGAGCCGUUCGGGCGGCUAUAAACAGACCUCAGGCCCGAAGCGUGGCGGCACCUGCCGCCGGUGGUAAAAAAGAUCGGAAGAGCACACGUCU	1.06
GGGUCGGGAAUAAAUAAUCGCGUGGAUAUGGCACGCAAGUUUCUACCGGGCACCGUAAAUGUCCGACUGGAGCCGUUCGGGCGGCUAUAAACAGACCUCAGGCCCGAAGCGUGGCGGCACCUGCCGCCGGUGGUAAAAAAGAUCGGAAGAGCACACGUCU	1.2
GGGUCGGGAAUCCAUAAUCGCGUGGAUAUGGCACGCAAGUUUCUACCGGGCACCGUAAAUGUCCGACUGGAGCCGUUCGGGCGGCUAUAAACAGACCUCAGGCCCGAAGCGUGGCGGCACCUGCCGCCGGUGGUAAAAAAGAUCGGAAGAGCACACGUCU	2.16
GGGUCGGGAAACCAUAAUCGCGUGGAUAUGGCACGCAAGUUUCUACCGGGCACCGUAAAUGUCCGACUGGAGCCGUUCGGGCGGCUAUAAACAGACCUCAGGCCCGAAGCGUGGCGGCACCUGCCGCCGGUGGUAAAAAAGAUCGGAAGAGCACACGUCU	1.53
GGGUCGGGAAUUGAUAAUCGCGUGGAUAUGGCACGCAAGUUUCUACCGGGCACCGUAAAUGUCCGACUGGAGCCGUUCGGGCGGCUAUAAACAGACCUCAGGCCCGAAGCGUGGCGGCACCUGCCGCCGGUGGUAAAAAAGAUCGGAAGAGCACACGUCU	1.15
GGGUCGGGAAUUAAUAAUCGCGUGGAUAUGGCACGCAAGUUUCUACCGGGCACCGUAAAUGUCCGACUGGAGCCGUUCGGGCGGCUAUAAACAGACCUCAGGCCCGAAGCGUGGCGGCACCUGCCGCCGGUGGUAAAAAAGAUCGGAAGAGCACACGUCU	1.22
GGGUCGGGAAUUUAUAAUCGCGUGGAUAUGGCACGCAAGUUUCUACCGGGCACCGUAAAUGUCCGACUGGAGCCGUUCGGGCGGCUAUAAACAGACCUCAGGCCCGAAGCGUGGCGGCACCUGCCGCCGGUGGUAAAAAAGAUCGGAAGAGCACACGUCU	1.35
GGGUCGGGAAAGAAUAAUCGCGUGGAUAUGGCACGCAAGUUUCUACCGGGCACCGUAAAUGUCCGACUGGAGCCGUUCGGGCGGCUAUAAACAGACCUCAGGCCCGAAGCGUGGCGGCACCUGCCGCCGGUGGUAAAAAAGAUCGGAAGAGCACACGUCU	1.15

Variant	aptazyme ON/OFF ratio
GGGUCGGGAAAGUAUAAUCGCGUGGAUAUGGCACGCAAGUUUCUACCGGGCACCGUAAAUGUCCGACUGGAGCCGUUCGGGCGGCUAUAAACAGACCUCAGGCCCGAAGCGUGGCGGCACCUGCCGCCGGUGGUAAAAAAGAUCGGAAGAGCACACGUCU	1.33
GGGUCGGGAAAGGAUAAUCGCGUGGAUAUGGCACGCAAGUUUCUACCGGGCACCGUAAAUGUCCGACUGGAGCCGUUCGGGCGGCUAUAAACAGACCUCAGGCCCGAAGCGUGGCGGCACCUGCCGCCGGUGGUAAAAAAGAUCGGAAGAGCACACGUCU	1.1
GGGUCGGGAUUUCAUAAUCGCGUGGAUAUGGCACGCAAGUUUCUACCGGGCACCGUAAAUGUCCGACUGGAGCCGUUCGGGCGGCUAUAAACAGACCUCAGGCCCGAAGCGUGGCGGCACCUGCCGCCGGUGGUAAAAAAGAUCGGAAGAGCACACGUCU	1.68
GGGUCGGGAAAACAUAAUCGCGUGGAUAUGGCACGCAAGUUUCUACCGGGCACCGUAAAUGUCCGACUGGAGCCGUUCGGGCGGCUAUAAACAGACCUCAGGCCCGAAGCGUGGCGGCACCUGCCGCCGGUGGUAAAAAAGAUCGGAAGAGCACACGUCU	1.19
GGGUCGGGAAAGCAUAAUCGCGUGGAUAUGGCACGCAAGUUUCUACCGGGCACCGUAAAUGUCCGACUGGAGCCGUUCGGGCGGCUAUAAACAGACCUCAGGCCCGAAGCGUGGCGGCACCUGCCGCCGGUGGUAAAAAAGAUCGGAAGAGCACACGUCU	1.16
GGGUCGGGAAAUCAUAAUCGCGUGGAUAUGGCACGCAAGUUUCUACCGGGCACCGUAAAUGUCCGACUGGAGCCGUUCGGGCGGCUAUAAACAGACCUCAGGCCCGAAGCGUGGCGGCACCUGCCGCCGGUGGUAAAAAAGAUCGGAAGAGCACACGUCU	1.35
GGGUCGGGAAUGCAUAAUCGCGUGGAUAUGGCACGCAAGUUUCUACCGGGCACCGUAAAUGUCCGACUGGAGCCGUUCGGGCGGCUAUAAACAGACCUCAGGCCCGAAGCGUGGCGGCACCUGCCGCCGGUGGUAAAAAAGAUCGGAAGAGCACACGUCU	1.5
GGGUCGGGAAUUCAUAAUCGCGUGGAUAUGGCACGCAAGUUUCUACCGGGCACCGUAAAUGUCCGACUGGAGCCGUUCGGGCGGCUAUAAACAGACCUCAGGCCCGAAGCGUGGCGGCACCUGCCGCCGGUGGUAAAAAAGAUCGGAAGAGCACACGUCU	1.52
GGGUCGGGAAUACAUAAUCGCGUGGAUAUGGCACGCAAGUUUCUACCGGGCACCGUAAAUGUCCGACUGGAGCCGUUCGGGCGGCUAUAAACAGACCUCAGGCCCGAAGCGUGGCGGCACCUGCCGCCGGUGGUAAAAAAGAUCGGAAGAGCACACGUCU	1.46
GGGUCGGGAUUGUAUAAUCGCGUGGAUAUGGCACGCAAGUUUCUACCGGGCACCGUAAAUGUCCGACUGGAGCCGUUCGGGCGGCUAUAAACAGACCUCAGGCCCGAAGCGUGGCGGCACCUGCCGCCGGUGGUAAAAAAGAUCGGAAGAGCACACGUCU	1.3
GGGUCGGGAUUGGAUAAUCGCGUGGAUAUGGCACGCAAGUUUCUACCGGGCACCGUAAAUGUCCGACUGGAGCCGUUCGGGCGGCUAUAAACAGACCUCAGGCCCGAAGCGUGGCGGCACCUGCCGCCGGUGGUAAAAAAGAUCGGAAGAGCACACGUCU	1.14
GGGUCGGGAUUGAAUAAUCGCGUGGAUAUGGCACGCAAGUUUCUACCGGGCACCGUAAAUGUCCGACUGGAGCCGUUCGGGCGGCUAUAAACAGACCUCAGGCCCGAAGCGUGGCGGCACCUGCCGCCGGUGGUAAAAAAGAUCGGAAGAGCACACGUCU	1.14
GGGUCGGGAAAAAAUAAUCGCGUGGAUAUGGCACGCAAGUUUCUACCGGGCACCGUAAAUGUCCGACUGGAGCCGUUCGGGCGGCUAUAAACAGACCUCAGGCCCGAAGCGUGGCGGCACCUGCCGCCGGUGGUAAAAAAGAUCGGAAGAGCACACGUCU	1.11
GGGUCGGGAAAAUAUAAUCGCGUGGAUAUGGCACGCAAGUUUCUACCGGGCACCGUAAAUGUCCGACUGGAGCCGUUCGGGCGGCUAUAAACAGACCUCAGGCCCGAAGCGUGGCGGCACCUGCCGCCGGUGGUAAAAAAGAUCGGAAGAGCACACGUCU	1.38
GGGUCGGGAAAAGAUAAUCGCGUGGAUAUGGCACGCAAGUUUCUACCGGGCACCGUAAAUGUCCGACUGGAGCCGUUCGGGCGGCUAUAAACAGACCUCAGGCCCGAAGCGUGGCGGCACCUGCCGCCGGUGGUAAAAAAGAUCGGAAGAGCACACGUCU	1.07
GGGUCGGGAAUGUAUAAUCGCGUGGAUAUGGCACGCAAGUUUCUACCGGGCACCGUAAAUGUCCGACUGGAGCCGUUCGGGCGGCUAUAAACAGACCUCAGGCCCGAAGCGUGGCGGCACCUGCCGCCGGUGGUAAAAAAGAUCGGAAGAGCACACGUCU	1.22
GGGUCGGGAAUGAAUAAUCGCGUGGAUAUGGCACGCAAGUUUCUACCGGGCACCGUAAAUGUCCGACUGGAGCCGUUCGGGCGGCUAUAAACAGACCUCAGGCCCGAAGCGUGGCGGCACCUGCCGCCGGUGGUAAAAAAGAUCGGAAGAGCACACGUCU	1.1
GGGUCGGGAAUGGAUAAUCGCGUGGAUAUGGCACGCAAGUUUCUACCGGGCACCGUAAAUGUCCGACUGGAGCCGUUCGGGCGGCUAUAAACAGACCUCAGGCCCGAAGCGUGGCGGCACCUGCCGCCGGUGGUAAAAAAGAUCGGAAGAGCACACGUCU	1.18
